This note sets out measurements from patent US20170067091.

Series [1] deals with Immunoglobulin E (human myeloma IgE) (Homo sapiens). The settings on record: nominal Kd, no asymptote reached; described as negligible binding; fluorescence bead binding assay.
The test system is the same in series [2]. The settings on record: fluorescence bead binding assay, 30 min incubation, wash, thermal elution at 95 C; monovalent binding assumed; enriched pool, individual sequences not given.

Like-named read-outs stand apart in the source and are kept apart here.

On to “GCCTGTTGTGAGCCTCCTGTCGAANNNNNNNNNNNNNNNNNNNNNNNNNNNNNNNNNNNNNNNNNNNNNTTGAGCGTTTATTCTTGTCTCCC [randomized 45N library]”, for which the Kd in series [1] amounted to 0.62 µM.
For the sequence “GCCTGTTGTGAGCCTCCTGTCGAANNNNNNNNNNNNNNNNNNNNNNNNNNNNNNNNNNNNNNNNNNNNNTTGAGCGTTTATTCTTGTCTCCC [round-4 enriched IgE aptamer pool]”, the Kd in series [2] came to 0.012 µM.

The term Kd denotes the concentration at which binding is half-saturated.
